Reference: publication PMC9772228, “Structure of a RecT/Redβ family recombinase in complex with a duplex intermediate of DNA annealing”
Residue numbers refer to the chain shown, from its start.

T1: LiRecT K191A/F194A (Listeria innocua CLIP 11262, UniProt Q92FL9 1-271, K191A;F194A)
T1 sequence: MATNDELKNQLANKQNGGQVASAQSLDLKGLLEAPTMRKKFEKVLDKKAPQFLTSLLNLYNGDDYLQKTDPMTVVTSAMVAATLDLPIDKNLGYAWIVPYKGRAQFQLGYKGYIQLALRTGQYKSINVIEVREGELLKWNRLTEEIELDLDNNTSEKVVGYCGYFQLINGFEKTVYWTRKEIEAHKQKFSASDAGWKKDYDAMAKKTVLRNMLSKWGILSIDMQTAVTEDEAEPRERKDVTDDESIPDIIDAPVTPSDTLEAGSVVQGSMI

T2: LiRecT V98A (Listeria innocua CLIP 11262, UniProt Q92FL9 1-271, V98A)
T2 sequence: T1 sequence with V98A, A191K, A194F


Experiments:
LiRecT K191A/F194A = biological target: T1, LiRecT K191A/F194A; assay: EMSA; EMSA: PBS pH 7.4 (or KH2PO4/10 mM MgCl2 pH 6.0), 3.6 or 5 uM protein, 25 uM nt DNA, 37 C 15 min per strand, 0.8% agarose 1x TBE; cryo-EM: 20 mM KH2PO4 (Results: 10 mM), 10 mM MgCl2 pH 6.0, 37 C; native MS: 100 mM ammonium acetate pH 7, 37 C; details: protein: recombinant, tags: N-terminal 6His vector tag (20 aa) retained, chain copies: 10, single strand
LiRecT V98A = biological target: T2, LiRecT V98A; assay: as above; details: protein: recombinant, tags: N-terminal 6His vector tag (20 aa) retained, chain copies: 10, single strand

| Binder | binding result (LiRecT K191A/F194A; label: 5'-Cy5) | binding result (LiRecT V98A; label: 5'-Cy5) | binding result (LiRecT K191A/F194A; label: 5'-Cy3) | binding result (LiRecT V98A; label: 5'-Cy3) |
| --- | --- | --- | --- | --- |
| CCATCCGCAAAAATCGAGCTATGCAGGGCGATTCTGCTCTAAGCCATCCG (ssDNA) [Cy5-50mer] | binds | binds |  |  |
| GCGGATGGCTTAGAGCAGAATCGCCCTGCATAGCTCGATTTTTGCGGATG (ssDNA) [Cy3-50mer] |  |  | binds | binds |
